Assay results reported in US20180021429A1, “ANTICANCER AGENTS OR ANTIMETASTATIC AGENTS USING FSTL1 AND COMBINATION DRUG THEREOF” (PHARMA FOODS INTERNATIONAL CO., LTD., priority 2015, published 2018).
Where a chain is given by its changes, count along the chain named. Entries after “also recorded” stand apart in the source; their conditions may differ.

T1: FSTL1 (Homo sapiens, UniProt Q12841)
T1 sequence (Q12841 21-308): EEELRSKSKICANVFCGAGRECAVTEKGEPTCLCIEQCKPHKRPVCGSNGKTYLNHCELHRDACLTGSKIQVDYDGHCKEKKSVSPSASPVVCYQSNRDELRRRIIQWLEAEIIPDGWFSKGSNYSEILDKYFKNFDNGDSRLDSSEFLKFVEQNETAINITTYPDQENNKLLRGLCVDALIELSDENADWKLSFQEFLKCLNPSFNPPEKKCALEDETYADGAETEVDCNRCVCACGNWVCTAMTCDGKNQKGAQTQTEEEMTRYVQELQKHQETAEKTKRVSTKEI

T2: mouse FSTL1 (Mus musculus, UniProt Q62356)
T2 construct: AAA linker + 10xHis (C); made in house; host or cells: Expi293 (transient expression; purified from culture supernatant on HisPur Cobalt Resin)
T2 sequence (Q62356 with tags, fused parts or gaps): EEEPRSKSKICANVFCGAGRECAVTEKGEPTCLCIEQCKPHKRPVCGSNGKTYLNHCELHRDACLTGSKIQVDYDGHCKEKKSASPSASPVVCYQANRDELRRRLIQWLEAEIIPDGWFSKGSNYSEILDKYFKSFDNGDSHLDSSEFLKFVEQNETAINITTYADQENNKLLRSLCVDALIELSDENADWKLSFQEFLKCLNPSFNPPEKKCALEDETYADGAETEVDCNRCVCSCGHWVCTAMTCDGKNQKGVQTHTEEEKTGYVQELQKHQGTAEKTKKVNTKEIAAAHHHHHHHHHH

B1: #33: chicken-mouse chimeric anti-FSTL1 antibody clone; variable regions SEQ ID NO: 823 (light), 825 (heavy) (antibody, V domains shown)
VH: AVTLDESGGGLQTPGGGLSLVCKASGFTFSSFNMNWVRQAPGKGLEYVAEISGTGSSTYYGSAVKGRATISRDNGQSTVRLQLNNLRAEDTATYFCARGDGAYSIDAWGHGTEVIVSS
VL: ASTQPSSVSANPGETVEITCSGDSSYYGWFQQKSPGSAPVTVIYDNTNRPSDIPSRFSGSKSGSTATLTITGVRAEDEAVYYCGGYDSSTYDGIFGAGTTLTVL
modifications: mouse constant regions
B2: #8-4: chicken-mouse chimeric anti-FSTL1 antibody clone; variable regions SEQ ID NO: 795 (light), 797 (heavy) (antibody, V domains shown)
VH: AVTLDESGGGLQTPGGGLSLVCKGSGFTLSSFNMFWVRQAPGKGLEWVAGVGKDGGTAYGAAVDGRATISRDSGQSTVRLQLNNLRAEDTGTYFCAKAAGGCSYSWCGAYVGDLDAWGHGTEVIVSS
VL: ASSQPSSVSANPGETVKITCSGGSGYYYGWYQQKSPGSAPVTVIYNNDNKPSDIPSRFSGSKSGSTGTLTITGVQVEDEAVYFCGGYDNSGTGIFGAGTTLTVL
modifications: mouse constant regions
B3: #6-55: chicken-mouse chimeric anti-FSTL1 antibody clone; variable regions SEQ ID NO: 783 (light), 785 (heavy) (antibody, V domains shown)
VH: AVTLDESGGGLQTPGGALSLVCKGSGFTFTSVTMQWVRQAPGKGLEWVASVCSGSSTYYAPAVKGRATISRDNGQSTVRLQLSNLRPEDTGTYYCAKIAGRARWSCTSAAYNIDAWGHGTEVIVSS
VL: ASTQPSSVSAIPGETVKITCSGGGNNYGWYQQRSPGSAPVTVIYYNDNRPSNIPSRFSGSTSGSTSTLTITGVQADDEAIYYCGSWDSNTDSGIFGAGTTLTVL
modifications: mouse constant regions
B4: #7-34: chicken-mouse chimeric anti-FSTL1 antibody clone; variable regions SEQ ID NO: 787 (light), 789 (heavy) (antibody, V domains shown)
VH: AVTLDESGGGLQTPGGGLSLVCKASGFTFSSVTMQWVRQAPGKGLEWVASICSGSSTYYGPAVKGRATISRDNGQNTVRLQLNNLRAEDTATYYCAKIVGRGRWSCTSAAYNIDAWGHGTEVIVSS
VL: B3 VL with I11N, R33K, D47N, D76E, I80V, W86Y, D87E, S88G, N89S
modifications: mouse constant regions
B5: #13: chicken-mouse chimeric anti-FSTL1 antibody clone; variable regions SEQ ID NO: 815 (light), 817 (heavy) (antibody, V domains shown)
VH: B4 VH
VL: ASTQPSSVSANPGETVKITCSGGGNNYGWYQQKSPGSAPVTVIYNNNNRPSNIPSRFSGSKSGSTNTLTITGVQAEDEAVYYCGSYDSSSDSGIFGAGTTLTVL
modifications: mouse constant regions
B6: #5-8: chicken-mouse chimeric anti-FSTL1 antibody clone; variable regions SEQ ID NO: 771 (light), 773 (heavy) (antibody, V domains shown)
VH: AVTLDESGGGLQTPGGGLSLVCKGSGFTFSSFNMFWVRQAPGKGLEWVAGIGKDGVPKYGTAVDGRATISKDNGQSTMRLQLNNLRAEDTGTYFCAKAAGGCSYDWCGIYTGDIDTWGHGTEVIVSS
VL: ASTQPSSVSANPGEAVKITCSGGSGSYYGWYQQKSPGSAPVTVIYNNNQRPSDIPSRFSGSKSGSTATLTITGVQAEDEAVYFCGGYDSSTGHGGIFGAGTTLTVL
modifications: mouse constant regions
B7: #8-1: chicken-mouse chimeric anti-FSTL1 antibody clone; variable regions SEQ ID NO: 791 (light), 793 (heavy) (antibody, V domains shown)
VH: B6 VH with G17A, T61A, T111A
VL: B6 VL with T91S
modifications: mouse constant regions

Experiments:
[1] = target: T1, FSTL1; experiment: Biacore T-200 affinity of mouse chimeric antibodies for human FSTL1 (Example 33); assay type: binding
Description: The mouse chimeric antibodies were immobilized onto Sensor Chip CM5 (GE Healthcare Japan Corp., BR-1005-30) using Mouse Antibody Capture Kit (GE Healthcare Japan Corp., BR-1008-38), and their affinity for human FSTL1 was calculated using Biacore T-200 (GE Healthcare Japan Corp.).
First, the exhaustive activity comparison of the obtained antibodies was conducted with the human FSTL1 concentration fixed to 10 μg/ml (Table 33-1, FIG. 122).
Next, the KD values of clone #6-55, #7-34, and #13 presumed to have high affinity in FIG. 122 were calculated with the antigen concentration adjusted to 0 to 20 μg/ml (Table 35-2).

[2] = target: T2, mouse FSTL1; experiment: ELISA, binding activity of purified antibody against mouse FSTL1 (Example 2)
Description: The reactivity of the obtained antibody clones described above with FSTL1 was evaluated by ELISA under the following conditions.
Antibodies used: anti-dinitrophenyl (DNP) antibody (negative control), #5-2, #5-3, #5-8, #5-10, #5-43, #6-55, and #7-34
FIGS. 64 and 65 show results of evaluating binding activity under the condition of Table 3 as to clones differing in screening and antibody purification timings.

[3] = test system: mouse melanoma cells (B16-F10) forced to express Snail; experiment: In vivo, intratumoral administration, Snail-positive B16-F10 bone metastasis model (Example 17); set-up: species or system C57BL/6N mice; settings: intratumoral 200 μg/0.1 mL/tumor on day 7; GFP-positive tumor cells in bone marrow, day 14
Excerpt: Three antibodies were comparatively analyzed for their antitumor effects and an immunosuppression-mitigating effect using bone metastasis models in which mouse melanoma cells B16-F10 forced to express Snail were subcutaneously and intravenously transplanted in C57BL/6N mice.
1. Experiment Group (n=5) • 1. No treatment • 2. Control IgG (anti-DNP) • 3. Anti-FSTL1 Clone #6-55 • 4. Anti-FSTL1 Clone #7-34 • 5. Anti-FSTL1 Clone #8-1 2. Experimental procedure • Day 0: transplantation of GFP-positive and Snail-positive B16-F10 tumor cells (5×10^5 cells subcutaneously & 1×10^5 cells intravenously) • Day 7: intratumoral administration of the antibody (200 μg/0.1 mL/tumor) • Day 14: various assays (with a focus on flow cytometry analysis) 3. Index for drug efficacy evaluation • Effects on the growth of subcutaneous tumor (calculation of tumor volume by tumor size measurement): measured 7, 11, and 14 days after tumor implantation (FIG. 11C) • Effects on bone metastasis (GFP-positive tumor cells in bone marrow) (FIG. 11A) • Effects on the expansion of mesenchymal stem cells (CD45-negative cells in bone marrow and in the spleen) (FIGS. 11B and 11D) • Effects on the expansion of immunosuppressive Treg cells (CD4-positive and Foxp3-positive cells in bone marrow or the spleen) (FIG. 11D) • Other immunosuppressive properties (FIG. 11D)
In order to evaluate in vivo antibody activity, antitumor effects and immunosuppression-mitigating effects were comparatively analyzed using bone metastasis models in which mouse melanoma cells (B16-F10) forced to express Snail were subcutaneously and intravenously transplanted in C57BL/6N mice. An anti-FSTL1 antibody to be tested was administered into tumor. On day 0, GFP-positive and Snail-positive B16-F10 tumor cells (5×10^5 cells subcutaneously & 1×10^5 cells intravenously) were transplanted. On day 7, the antibody was administered into subcutaneous tumor (200 μg/0.1 mL/tumor). On day 14, various assays were conducted. […]

[4] = antibody diluted from 100 ng/ml
[5] = cross reactivity test, antibody diluted from 1000 ng/ml

Row | Molecule | affinity in an assay system using surface plasmon resonance [1] | binding activity against mouse FSTL1 [2, 4] | binding activity against mouse FSTL1 [2, 5] | bone metastasis [3]
1 | B1 | strong affinity | – | – | –
2 | B2 | – | exhibited no binding activity | – | –
3 | B3 | strong affinity | – | specific and equivalently strong binding activity | bone metastasis was suppressed by only #6-55 and #8-1
4 | B4 | – | – | specific and equivalently strong binding activity | no suppressive effect was seen
5 | B5 | strong affinity | – | – | –
6 | B6 | – | exhibited no binding activity | – | –
7 | B7 | – | slightly exhibited binding activity; also recorded: very slightly exhibited binding activity | – | bone metastasis was suppressed by only #6-55 and #8-1
